Residue numbers refer to the chain shown, from its start. Read-outs that look alike come from different tables or passages of the source. Each block holds one binder with its values, some of them ahead of it.
How the values were obtained:
[1] = target: PD-L1 expressed on CHO cells (human, UniProt Q9NZQ7 19-290); assay: cell-based or functional assay
[2] = target: T1, human PD-L1 protein (soluble) (human, UniProt Q9NZQ7 19-239); assay: SPR, mAb captured on anti-human IgG Fc, PD-L1 as analyte;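 for koff: array SPR with mAb supernatants captured at several densities, PD-L1 injected for 5 min then 15 min dissociation, non-regenerative kinetic series, double-referenced against interspot surface and blank injection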;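 for kon: array SPR with mAb supernatants captured at several densities, PD-L1 injected for 5 min then 15 min dissociation, non-regenerative kinetic series, double-referenced against interspot surface and blank injection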
T1 construct: also called PD-L1 (R&D Systems); His-tagged PD-L1 protein
Experimental: (§1) The surface was then deactivated with 1 M ethanolamine pH 8.5 (Carterra Inc.). Running buffer used for the lawn immobilization was HBS-EPC (10 mM HEPES, 150 mM NaCl, 3 mM EDTA, 0.05% Tween 20, pH 7.4; Teknova).
(§2) The sensor chip was then transferred to a continuous flow microspotter (CFM; Carterra Inc.) for array capturing. The mAb supernatants were diluted 50-fold (3-10 mg/mL final concentration) into HBS-EPC with 1 mg/mL BSA. The samples were each captured twice with 15-minute and 4-minute capture steps on the first and second prints, respectively, to create multiple densities, using a 65 mL/min flow rate. The running buffer in the CFM was also HBS-EPC.
(§3) Next, the sensor chip was loaded onto an SPR reader (MX-96 system; Ibis Technologies) for the kinetic analysis. […] PD-L1 injections were 5 minutes with a 15-minute dissociation at 8 mL/second in a non-regenerative kinetic series. An injection of the goat anti-Human IgG Fc capture antibody at 75 mg/mL was injected at the end of the series to verify the capture level of each mAb. Binding data was double referenced by subtracting an interspot surface and a blank injection and analyzed for ka (on-rate), kd (off-rate), and KD (affinity) using the Kinetic Interaction Tool software (Carterra Inc.).

[3] = target: T1, human PD-L1 protein (soluble); assay: as above; remark: listed apart in the source
Experimental: as §1, §2, §3

[4] = target: T2, cyno PD-L1 (cyno); assay: BLI (Octet), antibody on AHC biosensor, cyno PD-L1 as analyte
T2 construct: Soluble analyte in BLI
Experimental: For BLI, antibodies were loaded onto an Anti-Human IgG Fc (AHC) biosensor using the Octet Red96 system (ForteBio). Loaded biosensors were dipped into antigen dilutions beginning at 300 nM, with 6 serial dilutions at 1:3. Kinetic analysis was performed using a 1:1 binding model and global fitting.

Chain of PD-L1 expressed on CHO cells (Q9NZQ7 19-290 limits assumed): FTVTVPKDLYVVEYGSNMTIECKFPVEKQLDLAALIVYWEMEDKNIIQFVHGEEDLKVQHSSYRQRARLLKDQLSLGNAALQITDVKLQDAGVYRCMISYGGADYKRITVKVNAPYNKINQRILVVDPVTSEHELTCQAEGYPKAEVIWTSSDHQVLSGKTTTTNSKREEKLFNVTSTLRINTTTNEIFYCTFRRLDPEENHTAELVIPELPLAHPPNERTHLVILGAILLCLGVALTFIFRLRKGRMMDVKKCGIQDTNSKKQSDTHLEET
T1 sequence (Q9NZQ7 19-239 limits assumed): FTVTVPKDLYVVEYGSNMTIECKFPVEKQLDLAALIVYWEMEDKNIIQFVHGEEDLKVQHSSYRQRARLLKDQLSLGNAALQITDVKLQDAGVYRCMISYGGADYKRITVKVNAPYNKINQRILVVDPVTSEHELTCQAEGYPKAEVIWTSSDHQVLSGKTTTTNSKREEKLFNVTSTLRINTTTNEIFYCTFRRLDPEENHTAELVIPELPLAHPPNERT

- Promega assay antagonist (EC50, ug/mL) [1]: 9.8 µg/mL
B1: antibody A23 (antibody, V domains shown)
VH: QVQLVQSGAEVKKPGASVKVSCKASGYTFTNYGISWVRQAPGQGLEWMGWISAYNGNTNYEQKVQGRVTMTTDTSTSTAYMELRSLRSDDTAVYYCARSLTGLFDYWGQGTLVTVSS
VL: DIQMTQSPSSLSASVGDRVTITCRASQGIRNDLGWYQQKPGKAPKRLIYAASSLQSGVPSRFSGSGSGTEFTLTISSLQPEDFATYYCLQHNSYPMFTFGQGTKLEIK

- Kd [2]: 567 nM
- Kd [3]: 565 nM
- koff [3]: 0.0035 s⁻¹
- kon [3]: 6200 M⁻¹ s⁻¹
B2: antibody A19 (antibody, V domains shown)
VH: QVQLVESGGGVVQPGRSLRLSCVASGFTFSSYGMHWVRQAPGKGLEWVAVIWYDGSNKFYIDSVKGRFTISRDNSKNTLYLQMNSLRAEDTAVYYCARGGAVAGTSWYYYYGMDVWGQGTTVTVSS
VL: DIQLTQSPSFLSASVGDRVTITCRASQGISSYLAWYQQKPGKAPKLLIYDASTLQSGVPSRFSGSGSGTEFTLTISSLQPEDFAIYYCQQLNTYPLTFGGGTKVEIK
notes: Tested as full-length mAb made in CHO cells; also called L19H19

- Kd [2]: 860 nM
- Kd [3]: 867 nM
- koff [3]: 0.013 s⁻¹
- kon [3]: 15000 M⁻¹ s⁻¹
B3: antibody A21 (antibody, V domains shown)
VH: B2 VH with V23A, I61E, A101V, V102N, A103W, G104N, T105D, S106V, W107G
VL: B2 VL with S9P, D50A, I85T, T93S, L96F, G100Q, V104L
notes: Tested as full-length mAb made in CHO cells; also called L21H21

- Promega assay antagonist (EC50, ug/mL) [1]: 3.13 µg/mL
- Kd [2]: 80 nM
- Kd [3]: 81.3 nM
- koff [3]: 0.013 s⁻¹
- kon [3]: 160000 M⁻¹ s⁻¹
- Kd [4]: 75.9 nM
B4: antibody A12 (antibody, V domains shown)
VH: QVQLVESGGGVVQPGRSLRLSCAASGFTFSSYGMHWVRQAPGKGLEWVAVIWYDGSNKSYADSVKGRFTFSRDNSKNTLYLQMNSLRAEDTAVYYCARDMDYFGLDVWGQGTTVTVSS
VL: DIQMTQSPSSLSASVGDRVTITCRASQGIRNDLGWYQQKPGKAPKRLIYAASSLQSGVPSRFSGSGSGTEFTLTISSLQPEDFATYYCLQHNSYPRTFGQGTKVEIK
notes: Tested as full-length mAb made in CHO cells; also called L12H12

- Promega assay antagonist (EC50, ug/mL) [1]: 0.55 µg/mL
- Kd [2]: 227 nM
- Kd [3]: 227 nM
- koff [3]: 0.022 s⁻¹
- kon [3]: 97000 M⁻¹ s⁻¹
B5: antibody A15 (antibody, V domains shown)
VH: QLQLQESGPGLVKPSETLSLTCTVSGGSFNRSNYYWGWIRQPPGKGLEWIGSIYYSGSTYYNPSLKSRLTISADTSKTQFSLKRNSVTAADTAVYYCAREDIVVVPAAQPPHFYFGMDVWGQGTTVTVSS
VL: B4 VL with N92D, R96L, Q100G
notes: Tested as full-length mAb made in CHO cells; also called L15H15

- Promega assay antagonist (EC50, ug/mL) [1]: 2.25 µg/mL
- Kd [2]: 335 nM
- Kd [3]: 335 nM
- koff [3]: 0.077 s⁻¹
- kon [3]: 230000 M⁻¹ s⁻¹
- Kd [4]: 762 nM
B6: antibody A17 (antibody, V domains shown)
VH: QVQLQESGPGLVKPSETLSLTCTVSGGSISGYSWSWIRQPPGKGLEWIGYIYYSGSTNNNPSLKSRVTISVDTSKNQFSLKLSSVTAADTAVYFCARDDGIAVAGYYFYYGLDVWGQGTTVTVSS
VL: B4 VL with S93T, R96W
notes: Tested as full-length mAb made in CHO cells; also called L17H17

- Kd [2]: 675 nM
- Kd [3]: 688 nM
- koff [3]: 0.11 s⁻¹
- kon [3]: 160000 M⁻¹ s⁻¹
B7: antibody A20 (antibody, V domains shown)
VH: B6 VH with G31S, S33Y, N59Y, F94Y, G100R, A104G, G105P, F108Y, L112M
VL: B4 VL with R96Y, V104L
notes: Tested as full-length mAb made in CHO cells; also called L20H20

- Promega assay antagonist (EC50, ug/mL) [1]: 0.088 µg/mL
- Kd [2]: 442 nM
- Kd [3]: 438 nM
- koff [3]: 0.035 s⁻¹
- kon [3]: 80000 M⁻¹ s⁻¹
B8: antibody A18 (antibody, V domains shown)
VH: QVQLVESGGGVVQPGRSLRLSCAASGFTFSSFALHWVRQAPGKGLEWVAVLWYDGISKYYADSVKGRFTISRDNSKNTLYLQMNSLRAEDTAVYYCARDVVGVHDAFDIWGQGTMVTVSS
VL: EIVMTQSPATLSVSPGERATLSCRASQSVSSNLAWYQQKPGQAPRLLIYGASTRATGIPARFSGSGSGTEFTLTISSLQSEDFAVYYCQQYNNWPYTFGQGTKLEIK
notes: also called L18H18

From US20220056137A1 (GIGAGEN, published 2022)
